Data reported in patent US20260132173A1 (JOON HAENG, published 2026).

Biological target: T1, human TLR5 expressed from p3xFlag-hTLR5 in HEK293T cells (human, UniProt O60602 21-858)
T1 construct: whole, on cells; In the reporter assays the receptor stood on transfected HEK293T cells; In the Co-IP it stood in the RIPA lysate of such cells and was pulled down with an anti-Flag antibody; also called Toll-like receptor 5; not shown: 3xFlag tag of plasmid p3xFlag-hTLR5
Experiment: Co-IP: 3xFlag-hTLR5 HEK293T lysate, anti-Flag pull-down, western blot with anti-Myc-HRP

T1 sequence (O60602 21-858): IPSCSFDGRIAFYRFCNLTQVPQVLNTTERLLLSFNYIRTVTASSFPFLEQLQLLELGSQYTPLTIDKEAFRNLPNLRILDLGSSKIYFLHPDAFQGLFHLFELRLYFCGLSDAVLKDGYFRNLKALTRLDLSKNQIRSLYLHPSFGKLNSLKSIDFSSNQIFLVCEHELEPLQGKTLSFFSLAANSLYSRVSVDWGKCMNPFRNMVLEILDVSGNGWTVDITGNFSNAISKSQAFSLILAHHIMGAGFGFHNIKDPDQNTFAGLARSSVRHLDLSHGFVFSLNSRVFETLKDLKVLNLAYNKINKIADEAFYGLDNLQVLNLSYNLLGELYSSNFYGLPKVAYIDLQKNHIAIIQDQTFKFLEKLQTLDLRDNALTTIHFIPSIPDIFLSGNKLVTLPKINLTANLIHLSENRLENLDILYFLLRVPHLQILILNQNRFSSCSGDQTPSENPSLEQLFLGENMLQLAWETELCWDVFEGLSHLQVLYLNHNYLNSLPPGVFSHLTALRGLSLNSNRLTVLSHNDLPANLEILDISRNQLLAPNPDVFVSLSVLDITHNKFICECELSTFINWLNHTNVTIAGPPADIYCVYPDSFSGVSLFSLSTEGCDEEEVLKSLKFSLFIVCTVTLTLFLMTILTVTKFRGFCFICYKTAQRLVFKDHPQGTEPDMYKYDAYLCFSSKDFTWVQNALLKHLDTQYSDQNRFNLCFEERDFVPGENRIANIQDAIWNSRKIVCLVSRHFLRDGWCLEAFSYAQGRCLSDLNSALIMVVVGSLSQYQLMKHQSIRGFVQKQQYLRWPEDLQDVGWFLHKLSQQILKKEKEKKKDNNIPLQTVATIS

B1: wild-type flagellin (eukFlaB) expressed in Expi293 cells (ligand)
chain: AVNVNTNVAAMTAQRYLNNANSAQQTSMERLSSGFKINSAKDDAAGLQISNRLNVQSRGLDVAVRNANDGISIAQTAEGAMNETTNILQRMRDLSLQSANGSNSKSERVAIQEEVTALNDELNRIAETTSFGGNKLLNGTYGTKAMQIGADNGEAVMLSLKDMRSDNVMMGGVSYQAEEGKDKNWNVAAGDNDLTIALTDSFGNEQEIEINAKAGDDIEELATYINGQTDLVKASVGEGGKLQIFAGNNKVQGEIAFSGSLAGELGLGEGKNVTVDTIDVTTVQGAQESVAIVDAALKYVDSHRAELGAFQNRFNHAISNLDNINENVNASKSRIKDTDFAKETTQLTKTQILSQASSSILAQAKQAPNSALSLLG
modifications: N-glycosylated by expression in Expi293 cells; five putative sites predicted at N83, N101, N139, N273, N330
notes: Secreted through the IgK leader of pSectag2B; also called glycosylated-eFlaB; eukaryotic-expressed wild-type flagellin; not shown: C-terminal Myc tag (and His tag implied by Ni-NTA purification) from vector pSectag2B
B1: no binding.
